Assay [1] has as its target human ILT7 (human) (UniProt P59901). Kind of assay: FACS dot plot of human PBMCs, CD304-PE against AF647-labeled antibody (lower left panel); upper left quadrant (CD304+ AF647-) 0.532.
For assay [2] the target is unchanged. Kind of assay: flow cytometry dot plot of human PBMCs, BDCA-4 against APC-labeled antibody (upper row); upper left quadrant (BDCA-4+ APC-) 0.36.
Assay [3] shares this target. Description: flow cytometry of human PBMCs with APC-labeled antibody at 2.5 µg/ml, histogram gated on BDCA-4+ pDCs (lower row).

Sequence of human ILT7 (human) (P59901 24-499): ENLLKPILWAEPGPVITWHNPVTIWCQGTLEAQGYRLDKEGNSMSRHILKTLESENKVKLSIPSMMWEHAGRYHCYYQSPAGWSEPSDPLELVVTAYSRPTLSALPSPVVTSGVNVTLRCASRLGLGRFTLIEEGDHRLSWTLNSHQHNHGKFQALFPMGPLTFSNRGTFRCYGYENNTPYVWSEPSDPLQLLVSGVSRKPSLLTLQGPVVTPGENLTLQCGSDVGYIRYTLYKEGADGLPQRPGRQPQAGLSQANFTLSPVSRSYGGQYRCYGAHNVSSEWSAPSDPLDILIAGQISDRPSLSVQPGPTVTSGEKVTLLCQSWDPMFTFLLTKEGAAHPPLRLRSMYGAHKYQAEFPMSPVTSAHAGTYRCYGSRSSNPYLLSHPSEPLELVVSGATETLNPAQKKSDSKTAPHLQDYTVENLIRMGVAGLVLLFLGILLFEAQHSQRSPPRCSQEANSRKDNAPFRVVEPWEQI

On to “afucosylated isotype control R347 (antibody)”, for which the percent of PBMCs in the CD304+ AF647+ quadrant (upper right) with human ILT7 (human) [1] came to 0.0153%. Consider isotype control R347 (antibody), for which the percent of PBMCs in the BDCA-4+ APC+ quadrant (upper right) in the assay with human ILT7 (human) [2] was 0.000963%. In the assay with human ILT7 (human) [3], this substance showed a percent of pDCs (BDCA-4+ cells) in the APC-positive gate of 0.59%.

The values are drawn from patent publication US20220144940A1.
